Results reported in patent US20040002450A1, “Y17 - isolated molecules comprising epitopes containing sulfated moieties, antibodies to such epitopes, and uses thereof” (priority 2000, published 2004).

Columns and labels:
Jurkat cells = assay: FACS binding to Jurkat cells; set-up: species or system human; settings: 1 μg scFv-Y1 versus 5 ng IgG-Y1; two-step staining
Excerpt: The present invention is directed to Y1 and Y17 multimers prepared by any known method in the art. A preferred method of forming multimers, and especially dimers, employs the use of cysteine residues to form disulfide bonds between two monomers. In this embodiment, dimers are formed by adding a cysteine on the carboxyl terminus of the scFvs (referred to as Y1-cys scFv or Y1 dimer) in order to facilitate dimer formation. After the DNA construct was made (See Example 2D and 6D) and used for transfection, Y1 dimers were expressed in a production vector and refolded in vitro. The protein was analyzed by SDS-PAGE, HPLC, and FACS. […] Two peaks were detected by SDS-PAGE (non-reduced) and by gel filtration. The peaks were collected separately and analyzed by FACS. […] Conditions for dimer refolding were determined, and material comprising >90% dimers (mg quantities) was produced after subsequent dialysis, chromatographic, and gel filtration steps. […]
FACS analysis was performed on Jurkat cells using a “three step staining procedure.” First, crude extracts or purified unlabeled scFv are stained, then mouse anti-myc antibodies, and finally, FITC— or PE-conjugated anti-mouse antibodies. […] After the final staining step, cells were fixed by re-suspending in PBS, 1% BSA, 2% formaldehyde, and then read by FACS (Becton-Dickinson).

washed platelets = assay: Ristocetin-induced agglutination of washed platelets after scFv preincubation; assay type: cell-based, human; settings: for % inhibition / % agglutination: washed platelets; for % inhibition: ristocetin; for % agglutination: ristocetin = 100%
Procedure: Aggregation is determined in PRP due to the presence of thrombotic agents, while agglutination is determined in washed platelets. The effect of Y1 (scFv) on agglutination of washed platelets was tested at various concentrations of Y1. Platelets were pre-incubated with Y1 scFv, Y17 scFv, Y16-scFv, or a control TM-1 scFv for 4 min at 37° C. before being exposed to ristocetin, an inducer of platelet agglutination and aggregation.
Platelet concentrate in acid-citrate-dextrose (ACD) was obtained from a blood bank, platelets were isolated, washed once in buffer containing ACD and saline in a ratio of 1:7. The platelets were centrifuged at 800 g for 10 min after each wash and were resuspended in Tyrodes solution (2 mM MgCl2, 137 mM NaCl, 2.68 mM KCl, 3 mM NaH2PO4, 0.1% glucose, 5 mM Hepes and 0.35% albumin, pH 7.35) and count the number of cells.
(§1) For platelet aggregation studies, platelet rich plasma (PRP) and washed platelets were stirred at 500 rpm at 37° C. in whole blood Lumiaggregometer (Chronolog, Havertown, Pa.). The difference in light transmission through the platelet suspension and suspending medium was taken as 100% aggregation. The effect of Y1 on platelet aggregation was evaluated by addition of different concentration of Y1 before the addition of agonist, and the effect was recorded for four minutes.
The effect of Y17-scFv on vWF-dependent agglutination of platelets was tested at different concentrations of Y17.

[1] = test system: platelet-rich-plasma (PRP); assay: Ristocetin-induced aggregation of platelet-rich-plasma after scFv preincubation; assay type: cell-based, human; settings: for % inhibition: ristocetin
Procedure: The effect of Y1 (scFv) on aggregation of platelet-rich-plasma (PRP) was tested at various concentrations of Y1. PRP was pre-incubated with Y1 scFv, Y17 scFv, or a control sTM-1cFv for 4 min at 37° C. before being exposed to ristocetin, an inducer of platelet agglutination and aggregation. A reversible inhibitory effect was observed when scFv was added to PRP prior to the addition of ristocetin, and it was dose dependent.
Blood was collected into a tube containing 3.8% sodium citrate. Platelet-rich plasma was prepared by centrifugation at 250×g for 10 minutes.
as §1

[2] = test system: platelets, KG-1, Raji and T2 cells; assay: FACS binding profile on platelets and human cell lines
KG-1 cells = assay: FACS and binding competition on KG-1 cells (Y1 forms and multimers); set-up: species or system human; settings: 5 μg and 10 μg
Excerpt: To compare the binding of the scFv monomer (also referred to as CONY1) with the Y1 dimer, binding competition experiments were done in vitro on KG-1 cells. In addition, these experiments also compared the binding of the full Y1 IgG to the scFv Y1 monomers. To perform this study, a Y1 IgG was labeled with biotin.
In a preferred method, tetramers are formed via a biotin/streptavidin association. A novel fermentation construct that is capable of being enzymatically labeled with biotin (referred to herein as Y1-biotag or Y1-B) was created. A sequence that is a substrate for the BirA enzyme was added at the Y1C-terminus. The BirA enzyme adds a biotin to the lysine residue within the sequence. Y1-biotag was expressed in E. coli. The inclusion body material was isolated and refolded. The purity of the folded protein was >95%, and >100 mg were obtained from a 1-L culture (small-scale, non-optimized conditions). […] Nevertheless, this construct offered the advantage of specific biotinylation in which the binding site of the molecule remains intact. Further, each molecule is labeled by only one biotin—each molecule receives one biotin on the carboxyl end.
Limiting labeling to one biotin/molecule in a desired location enabled production of tetramers with streptavidin. The tetramers were formed by incubating Y1-B with steptavidin-PE. […]

B1: Y1 scFv: fully human scFv clone binding platelets and myelogenous leukemia cells; SEQ ID NO: 25, heavy chain CDR3 SEQ ID NO: 8 (protein, listed as Homo sapiens)
scFv: MKYLLPTAAAGLLLLAAQPAMAEVQLVESGGGVVRPGGSLRLSCAASGFTFDDYGMSWVRQAPGKGLEWVSGINWNGGSTGYADSVKGRFTISRDNAKNSLYLQMNSLRAEDTAVYYCARMRAPVIWGQGTLVTVSRGGGGSGGGGSGGGGSSELTQDPAVSVALGQTVRITCQGDSLRSYYASWYQQKPGQAPVLVIYGKNNRPSGIPDRFSGSSSGNTASLTITGAQAEDEADYYCNSRDSSGNHVVFGGGTKLTVLGAAAEQKLISEEDLNGAA
fold more molecules needed for a level of detection similar to IgG-Y1 (Jurkat cells): approximately 10^3 fold | effect on ristocetin-induced agglutination of washed platelets (in words) (washed platelets; 4 μg/ml): No inhibition | effect on ristocetin-induced agglutination of washed platelets (in words) (washed platelets; 12.5 μg/ml): only partial inhibition | effect on ristocetin-induced agglutination of washed platelets (in words) (washed platelets; 25 μg/ml): inhibited agglutination | % inhibition (washed platelets; scFv 4 μg/ml): 8% | % agglutination (washed platelets; scFv 4 μg/ml): 92% | % inhibition (washed platelets; scFv 12.5 μg/ml): 33% | % agglutination (washed platelets; scFv 12.5 μg/ml): 67% | % inhibition (washed platelets; scFv 25 μg/ml): 77% | % agglutination (washed platelets; scFv 25 μg/ml): 23% | effect on ristocetin-induced platelet aggregation in PRP (in words) ([1]; 25 μg/ml): no significant inhibition | % inhibition ([1]; scFv 25 μg/ml, PRP): 13% | % aggregation ([1]; scFv 25 μg/ml, PRP, ristocetin = 100%): 87% | % inhibition ([1]; scFv 50 μg/ml, PRP, first 4 minutes): 80% | binding to Raji and T2 cells [2]: do not bind | competition with Y1 IgG-Biotin (50 ng) (KG-1 cells): partially competed
